Results: US20050042220A1 (GENETICS INSTITUTE, published 2005)

T1: human IL-22R extracellular domain-Fc fusion homodimer (human, UniProt Q8N6P7 16-228)
T1 construct: extracellular domain; Used as CHO conditioned medium, not purified; also called IL-22R-Fc; IL-22RECD-Fc; not shown: human IgG1 Fc
T1 sequence: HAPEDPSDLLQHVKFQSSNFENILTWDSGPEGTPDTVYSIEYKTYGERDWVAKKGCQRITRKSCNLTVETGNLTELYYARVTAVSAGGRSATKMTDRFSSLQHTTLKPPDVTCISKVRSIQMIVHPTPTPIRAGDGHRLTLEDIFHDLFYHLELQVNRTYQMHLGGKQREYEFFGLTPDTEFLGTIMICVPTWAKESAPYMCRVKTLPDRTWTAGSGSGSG

T2: human IL-22 binding protein-Fc fusion (human, UniProt Q969J5-2 22-231, limits assumed)
T2 construct: Fc fusion homodimer, used as CHO conditioned medium; also called IL-22BP-Fc; huIL22BP-huFc; not shown: human IgG1 Fc
T2 sequence: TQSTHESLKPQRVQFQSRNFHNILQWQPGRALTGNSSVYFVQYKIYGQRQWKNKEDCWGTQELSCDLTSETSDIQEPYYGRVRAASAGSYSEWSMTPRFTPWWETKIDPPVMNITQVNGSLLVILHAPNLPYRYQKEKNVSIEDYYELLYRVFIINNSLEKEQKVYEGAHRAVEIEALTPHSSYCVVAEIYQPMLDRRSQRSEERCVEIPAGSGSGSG

T3: IL-22R-Fc/IL-10R2-Fc heterodimer from co-expressing CHO cells (human, UniProt Q8N6P7 16-228; Q08334 20-220)
T3 construct: extracellular domain; also called IL-22R/IL-10R2-Fc heterodimer; IL-22R-Fc/IL-10R2-Fc complex; not shown: human IgG1 Fc
T3 sequence 1: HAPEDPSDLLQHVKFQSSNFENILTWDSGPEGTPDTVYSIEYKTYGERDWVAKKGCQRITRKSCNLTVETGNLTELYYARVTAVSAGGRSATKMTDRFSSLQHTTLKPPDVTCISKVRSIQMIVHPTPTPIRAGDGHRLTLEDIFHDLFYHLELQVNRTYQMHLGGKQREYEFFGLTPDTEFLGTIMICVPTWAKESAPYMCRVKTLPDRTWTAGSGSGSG
T3 sequence 2: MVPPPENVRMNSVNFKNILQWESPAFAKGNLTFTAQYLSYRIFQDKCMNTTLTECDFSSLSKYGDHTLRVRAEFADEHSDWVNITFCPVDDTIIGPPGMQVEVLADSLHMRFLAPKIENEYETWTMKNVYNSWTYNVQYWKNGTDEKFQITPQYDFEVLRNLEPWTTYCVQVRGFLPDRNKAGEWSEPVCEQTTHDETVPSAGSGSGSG


Key:
[1] = target: T1, human IL-22R extracellular domain-Fc …; assay: sandwich ELISA: rabbit anti-hIL-22R coat, 1:1 mixture of IL-22R-Fc and IL-10R2-Fc media titrated, biotinylated goat anti-hIL-10R2 then streptavidin-HRP, A450
Experimental: Monomeric IL-22RECD-Fc and IL-10R2ECD-Fc fusions were determined to have molecular weights of ˜60 kD and ˜85 kD, respectively. Reduced and non-reduced conditioned media (CM) from CHO cells expressing either or both receptor Fc fusions was separated on SDS-PAGE gels and blotted to a membrane which was then probed with polyclonal antibodies directed against either human IgG Fc, IL-22R or IL-10R2. More specifically, in FIG. 7A, conditioned media from CHO cells expressing either IL-22R-Fc, IL-10R2-Fc or both receptor Fc were separated on 8% polyacyrlamide gels under both reduced (+βME) and non-reduced (−βME) conditions and transferred to membrane blots. Western blots were carried out using any of anti-human IgG1, anti-hIL-22R or anti-hIL-10R2 antibodies. For anti-hIgG detection of a blot, 4 ng total Fc fusion in CM was loaded in each lane. For anti-IL-22R and anti-IL-10R2 antibody detection, 16 ng total Fc fusion in CM from co-expressing CHO was used. […] The bound receptors were detected using a biotinylated goat anti-human IL-10R2 antibody, followed by streptavidin-HRP.
The presence of heterodimers in the CM from CHO cells was verified by sandwich ELISA, using antibodies specific for each chain of the heterodimer. Conditioned media was added to wells coated with an IL-22R polyclonal antibody and bound protein was then detected with a biotinylated IL-10R2 polyclonal antibody. […]

[2] = target: T2, human IL-22 binding protein-Fc fusion; assay: BIAcore, Fc fusion from conditioned medium captured by anti-human IgG, IL-22 injected, 1:1 model
Experimental: (§1) The surface was activated with EDC/NHS. The capturing antibody was injected at a concentration of 50 ug/ml in sodium acetate buffer (pH 4.5), the Protein-A was injected at a concentration of 50 ug/ml in sodium acetate buffer (pH 4.0), or test protein was directly injected at a concentration of 0.01-1 ug/ml in sodium acetate buffer (pH 5.0). The immobilization was done using the wizard tools with aim of 10.000 resonance units (RUs) for the anti-hu or anti-rat IgG, 3000 (RUs) for the Protein-A and […] (RUs) for the directly immobilized testing protein. Remaining activated groups were blocked with 1.0 M ethanolamine (pH 8.0). As control the first flow cell was used as reference surface to correct for bulk refractive index, matrix effects and non-specific binding, the second, third and four flow cells were coated with the capturing molecule.
(§2) For kinetic analysis, condition media containing IL-22R-Fc, IL-10R2-Fc, IL-22R-Fc/IL-10R2-Fc receptor complex or IL-22BP-Fc protein were captured onto the anti-human IgG antibody or protein A surfaces. The rat antibodies were captured onto the anti-rat IgG antibody surface, by injecting 60 ul of a 400 ng/ml solution. […] The dissociation phase was monitored in HBS/EP buffer for 10 minutes at the same flow rate followed by 5 ul injection of 0.1% TFA and 5 ul injection of glycine pH 1.5 to regenerate a fully active capturing surface. […]

[3] = target: T1, human IL-22R extracellular domain-Fc …; assay: BIAcore, receptor-Fc from conditioned medium captured by anti-human IgG, IL-22 injected, 1:1 model
Experimental: as §1, §2

[4] = target: T3, IL-22R-Fc/IL-10R2-Fc heterodimer from …; assay: as above
Experimental: as §1, §2

Kd [2] [nM]	Kd [3] [nM]	Kd [4] [nM]	Binder	binding result [1]
–	–	–	human IL-10R2 extracellular domain-Fc fusion homodimer (Fc fusion, extracellular domain; Used as CHO conditioned medium, not purified; also called IL-10R2-Fc; IL-10R2ECD-Fc; not shown: human IgG1 Fc) MVPPPENVRMNSVNFKNILQWESPAFAKGNLTFTAQYLSYRIFQDKCMNTTLTECDFSSLSKYGDHTLRVRAEFADEHSDWVNITFCPVDDTIIGPPGMQVEVLADSLHMRFLAPKIENEYETWTMKNVYNSWTYNVQYWKNGTDEKFQITPQYDFEVLRNLEPWTTYCVQVRGFLPDRNKAGEWSEPVCEQTTHDETVPSAGSGSGSG	no binding (tested: 100 ng/ml total Fc fusion)
3.37	41	1.48	N terminal His/Flag tagged human IL-22 (ligand, Made in CHO cells, extensively N-glycosylated; also called human h/f tagged IL-22; hIL-22) GSGHHHHHHGSGDYKDDDDKAPISSHCRLDKSNFQQPYITNRTFMLAKEASLADNNTDVRLIGEKLFHGVSMSERCYLMKQVLNFTLEEVLFPQSDRFQPYMQEVVPFLARLSNRLSTCHIEGDDLHIQRNVQKLKDTVKKLGESGEIKAIGELDLLFMSLRNACI	–
